Where no end group is shown, it is not given here. The star is where a group is joined. biotin = biotin label attached through an aminohexanoic acid linker; Biotin = O=C1N[C@H]2[C@H](CS[C@H]2CCCCC(=O)*)N1; Ahx = NCCCCCC(=O)O
What was measured:
[1] = target: peptide-binding domain of GRP78 (GRP78-PBD, amino acids 421-639) (UniProt P11021); experiment: SPR (BIACORE T200), N-biotin peptide on streptavidin CM5 chip, GRP78-PBD analyte
[2] = target: peptide-binding domain of GRP78 (GRP78-PBD, amino acids 421-639) (UniProt P11021); experiment: SPR (BIACORE T200), C-terminal biotin peptide on streptavidin CM5 chip, GRP78-PBD analyte

peptide-binding domain of GRP78 (GRP78-PBD, amino acids 421-639), sequence (P11021 421-639 limits assumed, form in doubt): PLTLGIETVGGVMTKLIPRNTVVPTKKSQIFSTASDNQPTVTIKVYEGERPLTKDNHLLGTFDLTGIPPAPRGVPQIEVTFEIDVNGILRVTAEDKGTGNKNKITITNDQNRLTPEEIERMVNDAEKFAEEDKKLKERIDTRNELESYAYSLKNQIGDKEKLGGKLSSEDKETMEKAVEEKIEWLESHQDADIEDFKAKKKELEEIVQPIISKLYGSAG

B1: P6-CTP, N-terminally extended with GGGGS and N-terminally biotin-labeled (peptide)
peptide: {biotin-Ahx}-GGGGSRLLDTNRPFLPY
B1 gave a Kd [1] of 1900 nM, a koff [1] of 0.003 s⁻¹ and a kon [1] of 1500 M⁻¹ s⁻¹.

B2: P13-CTP, N-terminally extended with GGGGS and N-terminally biotin-labeled (peptide)
peptide: {biotin-Ahx}-GGGGSRLLDTNRPFLFY
For B2, the Kd [1] was 2700 nM, the koff [1] was 0.0034 s⁻¹ and the kon [1] was 1200 M⁻¹ s⁻¹.

B3: F4P13-TR-CTP, N-terminally extended with GGGGS and N-terminally biotin-labeled (peptide)
peptide: {biotin-Ahx}-GGGGSRPFLFPFLFY
For B3, the Kd [1] was 2100 nM, the koff [1] was 0.0017 s⁻¹ and the kon [1] was 790 M⁻¹ s⁻¹.

B4: F5P13-TR-CTP, N-terminally extended with GGGGS and N-terminally biotin-labeled (peptide)
peptide: {biotin-Ahx}-GGGGSRPFLFPFLFYRPFLFPFLFY
B4 gave a Kd [1] of 610 nM, a koff [1] of 0.0012 s⁻¹ and a kon [1] of 1900 M⁻¹ s⁻¹.

B5: P13-CTP-cBiotin (P13-CTP extended at the C-terminus with GGGGSK, biotin on the C-terminal lysine) (peptide)
peptide: RLLDTNRPFLFYGGGGSK(Biotin)
For B5, the Kd [2] was 2700 nM, the koff [2] was 0.002 s⁻¹ and the kon [2] was 970 M⁻¹ s⁻¹.

B6: F4P13-TR-CTP with C-terminal biotin (extended at the C-terminus with GGGGSK, biotin on the C-terminal lysine) (peptide)
peptide: RPFLFPFLFYGGGGSK(Biotin)
B6 gave a Kd [2] of 660 nM, a koff [2] of 0.0012 s⁻¹ and a kon [2] of 1800 M⁻¹ s⁻¹.

B7: MF4P13-TR-CTP-cBiotin (F4P13-TR-CTP with a methionine added at its N-terminus, C-terminal GGGGSK, biotin on the C-terminal lysine) (peptide)
peptide: MRPFLFPFLFYGGGGSK(Biotin)
B7 gave a Kd [2] of 1200 nM, a koff [2] of 0.00029 s⁻¹ and a kon [2] of 240 M⁻¹ s⁻¹.

B8: F4P6-TR-CTP, N-terminally extended with GGGGS and N-terminally biotin-labeled (peptide)
peptide: {biotin-Ahx}-GGGGSRPFLPFLPY
In the case of B8, the Kd [1] is reported as 1200 nM, the koff [1] is reported as 0.0028 s⁻¹ and the kon [1] is reported as 2300 M⁻¹ s⁻¹.

B9: F5P6-TR-CTP, N-terminally extended with GGGGS and N-terminally biotin-labeled (peptide)
peptide: {biotin-Ahx}-GGGGSRPFLPFLPYRPFLPFLPY
B9 showed a Kd [1] of 1000 nM, a koff [1] of 0.00091 s⁻¹ and a kon [1] of 890 M⁻¹ s⁻¹.

From patent US20210253636A1
